The values that follow come from patent US20200261603A1 (Astellas, published 2020).

Assay [1] addresses T1, human cancer-specific MUC1 (human, UniProt P15941 24-1255, cancer-specific incomplete O-glycosylation (T, Tn, 2,3ST) of threonine at position 9 of the 20-amino acid tandem repeat … (SEQ ID NO: 15), as the background describes it).
T1 construct: whole, on cells; also called Mucin 1; human MUC1
In words: Cell ELISA on formalin-fixed T-47D cells, HRP anti-human Igκ, luminescence. (An ELISA detects its analyte on a solid surface through an enzyme-linked reagent.)

In assay [2] the target is T1, human cancer-specific MUC1. In words: immunostaining of a human bladder cancer tissue array, 0.25 µg/mL primary antibody, Polymer-HRP/DAB.

Changes are numbered by the printed parent chain.

B1: P10-2 Fab (Fab, V domains shown)
VH: QVQLVQSGAEVKKPGASVKVSCKASGYTFTNYGLSWVRQAPGQGLEWMGENHPGSGIIYHNEKFRGRVTLTADRSTSTAYMELSSLRSEDTAVYYCARSSGTRGFDYWGQGTLVTVSS
VL: DVVMTQTPLSLSVTPGQPASISCRSSQSIVHSNGNTYLEWYLQKPGQSPQLLIYRVSNRFSGVPDRFSGSGSGTDFTLKISRVEAEDVGVYYCFQGSHGPWTFGQGTKLEIKR
modifications: heavy chain N-terminal glutamine was modified into pyroglutamic acid in a great majority of purified antibodies
notes: expressed in Expi293F cells; also called anti-human MUC1 antibody Fab fragment P10-2
B1: the “fold binding activity compared to 1B2 Fab” value in assay [1] is ≥ 10 times (vs 1B2 Fab).

B2: mouse chimeric P10-2 IgG (antibody, V domains shown)
VH: B1 VH
VL: B1 VL
notes: Antibody in which the VH and VL domains of P10-2 Fab were fused with mouse IgG2a CH1 to CH3 domains and a mouse κ chain CL domain; not shown: mouse IgG2a CH1 to CH3 domains; mouse κ chain CL domain
In the case of B2, the binding result in assay [2] is “binds”.

B3: P10-1 Fab (Fab, V domains shown)
VH: B1 VH with D106A
VL: B1 VL
notes: expressed in Expi293F cells; also called anti-human MUC1 antibody Fab fragment P10-1
Take B3: the “fold binding activity compared to 1B2 Fab” value in assay [1] was ≥ 10 times (vs 1B2 Fab).

B4: P10-1 Fab Dye (Fab, V domains shown)
VH: B1 VH with D106A
VL: B1 VL
modifications: IRDye800CW (NHS ester) on Lys of the Fab fragment; number and positions not stated
notes: also called IRDye800CW-labeled P10-1 Fab
For the molecule B4, the binding result in assay [1] was “binds”.
